Laboratory results published in US20240059766A1 (VOYAGER THERAPEUTICS, published 2024).
Each block holds one binder with its values, some of them ahead of it. Non-standard residues stand in square brackets, D forms with d. No end group written: not given here. pT = C[C@@H](OP(=O)(O)O)[C@H](N)C(=O)O; pS = N[C@@H](COP(=O)(O)O)C(=O)O

Assays:
[1] = molecular target: wild type tau (human, UniProt P10636 2-758); test: direct ELISA, coated antigen
Description: (§1) A set of recombinant human IgG1 antibodies were prepared with clone-specific variable domain pairs selected from those presented in Table 1 and human IgG1 constant domains. These candidate antibodies were analyzed for binding to ePHF and specificity for ePHF over wild type tau by direct ELISA.
(§2) For direct ePHF and wildtype tau ELISA, plates were first coated with ePHF or wild type tau. Antigen solutions were prepared in PBS and 50 μL were pipetted into each well. Plates were covered and incubated for one hour at 37° C. or overnight at 4° C. Plates were then washed and blocked by addition of 150 μl of blocking buffer to each well and incubated one hour at room temperature. Plates were then washed before addition of serially diluted candidate antibody samples prepared in blocking buffer. Detection of candidate antibody binding was carried out by washing plates and adding a solution of enzyme-labeled secondary antibody in blocking buffer to each well. Secondary antibody binding was detected by addition of substrate and spectrophotometric analysis of resulting reaction product.

[2] = molecular target: T1, Enriched paired helical filament (ePHF; sarkosyl insoluble tau) (human, UniProt P10636 2-758, pathological (hyperphosphorylated) tau isolated from brain; sites not stated); test: direct ELISA, coated antigen
T1 construct: aggregate isolated from AD frontal cortical tissue
T1 sequence (P10636 other isoform, or with tags, fused parts or gaps limits assumed): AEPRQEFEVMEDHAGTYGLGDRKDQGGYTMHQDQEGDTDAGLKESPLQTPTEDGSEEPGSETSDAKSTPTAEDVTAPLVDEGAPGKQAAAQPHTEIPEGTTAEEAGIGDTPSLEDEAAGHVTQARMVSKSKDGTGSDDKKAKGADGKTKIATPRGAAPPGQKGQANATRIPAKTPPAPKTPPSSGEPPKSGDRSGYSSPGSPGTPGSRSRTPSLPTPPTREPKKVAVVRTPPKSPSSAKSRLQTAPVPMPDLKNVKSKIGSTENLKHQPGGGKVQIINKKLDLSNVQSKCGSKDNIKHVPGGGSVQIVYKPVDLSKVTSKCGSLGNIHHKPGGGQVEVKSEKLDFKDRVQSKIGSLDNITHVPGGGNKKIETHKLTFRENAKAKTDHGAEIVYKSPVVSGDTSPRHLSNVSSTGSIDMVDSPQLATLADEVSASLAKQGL
Description: as §1, §2

[3] = molecular target: iPHF (UniProt P10636-8 2-441); test: BLI (Octet), antibody on biosensor tip
iPHF, sequence (P10636 other isoform, or with tags, fused parts or gaps): as the sequence (P10636 other isoform, or with tags, fused parts or gaps limits assumed) above
Description: Anti-human tau antibodies were assessed for affinity for iPHF by Octet (ForteBio, Menlo Park, CA) analysis. A set of recombinant human IgG1 antibodies were prepared with clone-specific variable domain pairs selected from those presented in Table 1 and human IgG1 constant domains. Candidate antibodies were immobilized on biosensor tips (ForteBio) in kinetic buffer (ForteBio). Biosensor tips were then washed before introduction of a solution of iPHF in kinetic buffer for analysis of association and dissociation with candidate antibodies.

[4] = molecular target: T2, Tau phospho-peptide (pS235) (human); test: one point ELISA on the pS235 peptide
T2 construct: also called pS235 phospho-peptide
T2 peptide: KVAVVRTPPK[pS]PSSAKPS

[5] = molecular target: T3, AT8 peptide (amino acids 195-215 of tau) (human, phospho-peptide; the phosphorylated sites are not stated; immobilized on streptavidin biosensor tips); test: BLI (Octet), peptide on streptavidin tip
T3 peptide: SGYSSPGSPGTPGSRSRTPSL
Description: Briefly, phospho-peptides were immobilized on streptavidin biosensor tips and the binding ability of each antibody was assessed using an eight-point concentration gradient.

[6] = molecular target: T4, Tau191-214 phospho-peptide (pS199) (human, pS199 (phosphoserine); SCBio-4PEG in the ELISA); test: BLI
T4 construct: also called pS199 peptide

[7] = molecular target: T5, SCBio-4PEG-Peptide (Tau191-214) pS199-old (human, pS199; SCBio-4PEG at the peptide as in the table head); test: one point ELISA
T5 construct: the suffix old is not explained
T5 sequence (peptide, as listed by the source): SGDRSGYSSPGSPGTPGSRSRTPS
Text: (§3) One-point ELISA was used to determine differential binding based on the individual phosphorylation patterns of each peptide. OD values (450 nm) were collected (as shown in Table 13), where a stronger positive signal is shown as a higher OD value, which is indicative of increased binding.

[8] = molecular target: T4, Tau191-214 phospho-peptide (pS199); test: one point ELISA
Text: as §3

[9] = molecular target: T6, Tau204-222 phospho-peptide (pS214) (human, also: SCBiot-(dPEG4) in the ELISA); test: one point ELISA
T6 peptide: GTPGSRSRTP[pS]LPTPPTRE
Text: as §3

[10] = molecular target: T7, Tau204-222 phospho-peptide (pT212) (human, also: SCBiot-(dPEG4) in the ELISA); test: one point ELISA
T7 peptide: GTPGSRSR[pT]PSLPTPPTRE
Text: as §3

[11] = molecular target: T8, Tau204-222 phospho-peptide (pT212/pS214) (human, also: SCBiot-(dPEG4) in the ELISA); test: one point ELISA
T8 peptide: GTPGSRSR[pT]P[pS]LPTPPTRE
Text: as §3

[12] = molecular target: T9, AC04 peptide (human, pT212, pT217: CSR(pT)PSLP(pT)PPTREPK); test: one point ELISA
T9 peptide: CSRXPSLPXPPTREPK
Text: as §3

[13] = molecular target: T10, wtTau C2 (human); test: one point ELISA
T10 peptide: PTREPKKVA
Text: as §3

[14] = molecular target: T11, AT270 peptide (pT181; Tau172-186) (human); test: one point ELISA
T11 peptide: PAKTPPAPK[pT]PPSSG

wild type tau, sequence (P10636 other isoform, or with tags, fused parts or gaps limits assumed): as the sequence (P10636 other isoform, or with tags, fused parts or gaps limits assumed) above

B3: VY009 (antibody, V domains shown)
VH: QITLKESGPTLVKPTQTLTLTCTLSGFSLSTSEVGVGWIRQPPGKALEWLAIIYWNDHKRYSPSLKNRLTFTKDTSKNQVVLTMTNMDPVDTATYYCARRVTGEGFDPWGQGTLVTVSS
VL: SYELTQPPSVSVSPGQTARITCSGDALPKQYAYWYQQKPGQAPVLVIFKDTERPSGIPERFSGSSSGTTVTLTISGVQAEDEADYYCQSADSSGSYVFGTGTKVTVL
- EC50 [2]: 1.74 nM
- Kd [3]: 1.1 nM
- binding result [4]: no binding (tested: not printed (one point))

B4: VY019 (antibody, V domains shown)
VH: QVQLQESGPGLVKPSETLSLTCTVSGGSISSYYWTWIRQPAGKGLEWIGRIDTSGSTNYNPSLKSRVTMSIDTSKKQFSLKLSSVTAADTAVYYCARGGDGYRYWGQGTLVTVSS
VL: SYELTQPPSVSVSPGQTARITCSGDALPKQYACWYQQKPGQAPVLVIYKDSERPSGIPERFSGSSSGTTVTLTITGVQAEDEADYYCQSTDSSGSWVFGGGTKLTVL
- binding result [1]: no binding
- binding result [2]: no binding
- binding result [4]: no binding (tested: not printed (one point))

B5: VY013 (antibody, V domains shown)
VH: QVTLKESGPVLVKPTETLTLTCTVSGFSLINARMAVSWIRQPPGKALEWLAHIFSNDEKSYSTSLKSRLTISKDTSKSQVVLIMTNMDPVDTATYYCARIRGYSYNYGMDVWGQGTTVTVSS
VL: DIVMTQSPLSLPVIPGEPASISCRSSQSLLHSNGYIYLDWYLQKPGQSPQLLIYVGSNRASGVPDRFSGSGSGTDFKLKISRVEAEDVGVYYCMQTLQIPRTFGGGTKVEIK
- EC50 [1]: 0.98 nM
- EC50 [2]: 0.06 nM
- Kd [3]: 2.9 nM

B6: VY014 (antibody, V domains shown)
VH: EVQLVESGGGLVQPGGSLRLSCAASGFTFNNYDMHWVRQAAGKGLEWVSTIGAAGDTYYPGSVKGRFIISRENAKNSLYLQMNSLRAGDTAVYYCARAGETLEGATIGYYYGMDVWGQGTTVTVSS
VL: DILMTQSPLSLPVTPGEPASISCRSSQSLLHSNGYNYLDWYLQKPGQSPQLLIYLGSNRASGVPDRFSGSGSGTDFTLKFSRVEAEDVGLYYCMQALQIPLTFGGGTKVEIK
- EC50 [1]: 0.04 nM
- EC50 [2]: 6.23 nM
- Kd [3]: 5.3 nM

B7: VY007 (antibody, V domains shown)
VH: EVQLVESGGGLVQPGGSLRLSCAASRFTFSNYNMNWVRQAPGKGLEWISYISSSSSTIYYADSVKGRFTISRDNAKNSLSLQMNSLRDEDTAVYYCASLGRGYWGQGTLVTVSS
VL: not shown
- EC50 [2]: 0.18 nM
- Kd [5]: 0.0182 nM
- Kd [3]: 0.6 nM
- binding result [6]: no binding
- OD450 [7]: 0.057 OD450 nm
- OD450 [8]: 0.057 OD450 nm

B11: VY018 (antibody, V domains shown)
VH: QVQLQESGPGLVKPSETLSLTCTVSGGSISNYYWSWIRQPAGKGLEWIGRIYTSGDTYYNPSLQSRVTMSVDTSKNQFSLKLSAVTAADTAVYYCARAGIVGTPGLGMDVWGQGTTVTVSS
VL: SYELTQPPSVSVSPGQTARITCSGEALPKQYAYWYQQKPGQAPVLVIYKDSERPSGIPERFSGSSSGTTVTLTISGVQAEDEADYYCQSADSSGTYRVFGGGTKLTVL
- Kd [3]: 3 nM
- binding result [4]: no binding (tested: not printed (one point))

B13: VY017 (antibody, V domains shown)
VH: EVQLVESGGGLVQPGGSLRLSCAASGFTFSSYSMNWVRQAPGKGLEWVSYIRSSSSTIYYADSVKGRFTISRDNAKKSLYLQMNSLRDEDTAVYYCARRSIADYWGQGTLVTVSS
VL: EIVLTQSPATLSSSPGERATLSCRASQSVTSYLNWYQQKPGQAPRLLIYDASNRATGIPARFSGSGSGTDFTLTISSLEPEDFALYYCQQRSNWPYTFGQGTKLEIK
- Kd [3]: 3.7 nM

Other lines, results leading:

- EC50 [1]: 0.01 nM
- EC50 [2]: 0.04 nM
- Kd [3]: 5.1 nM
B1: VY012 (antibody, V domains shown)
VH: EVQLLESGGGLVQPGGSLRLSCAASGFTYSSYAMSWVRRAPGKGLEWISIISGSSSITYYADSMKGRFTISRDNSKNTLFLQMNSLRAEDTAVYYCAKGGRYGYFQHWGQGTLVTVSS
VL: SYVLTQPPSVSVAPGQTARITCGGNNIGSKSVHWYQQKPGQAPVLVVYDDSDRPSGIPERFSGSNSGNTATLTISRVEAGDEADYYCQVWDSSSDPVVFGGGTMLTVL

- binding result [1]: no binding
- binding result [2]: no binding
B2: VY016 (antibody, V domains shown)
VH: EVQLVESGGGLVQPGGSLRLSCAASGFTFSSYSMNWVRQAPGKGLEWVSYISRSGSTIYYADSVEGRFTISRDNAYNSLYLQMISLRDDDTAVYYCARGNWAYWGQGILVTVSS
VL: QSVLTQPPSVSGAPGQRVTISCTGSSSNIGAGYDVHWYQQLPGTAPKLLIYGNSNRPSGVPDRFSGSKSGTSASLAITGLQAEDETDFYCQSYDSSLSGSVFGGGTKLTVL

- EC50 [2]: 0.02 nM
- Kd [5]: 0.00435 nM
- Kd [3]: 7.7 nM
- binding result [6]: no binding
- OD450 [7]: 0.059 OD450 nm
- OD450 [8]: 0.059 OD450 nm
B8: VY001 (antibody, V domains shown)
VH: EVQLVESGGGLVQPGGSLRLSCAASGFTFSSYNMNWVRQAPGKGLEWISYISSSSNTIYYADSVKGRFTVSRDNAKNSLYLQMNSLRDEDTAVYYCATLGRGYWGQGTLVIASS
VL: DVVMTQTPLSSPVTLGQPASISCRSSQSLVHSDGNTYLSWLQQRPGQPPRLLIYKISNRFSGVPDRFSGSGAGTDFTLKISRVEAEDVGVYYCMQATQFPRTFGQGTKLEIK

- EC50 [2]: 0.07 nM
- Kd [3]: 1 nM
- OD450 [9]: 0.092 OD450 nm
- OD450 [10]: 0.087 OD450 nm
- OD450 [11]: 0.111 OD450 nm
- OD450 [12]: 2.83 OD450 nm
- OD450 [13]: 0.153 OD450 nm
B9: VY005 (antibody, V domains shown)
VH: EVQLVESGGGLVQPGGSLRLSCAASGFTFSSYSMNWVRQAPGKGLEWISYISSSNSTIKYADSVKGRFTISRDNAKNSLYLQMNSLRDEDTAVYYCARRSLGDYWGQGTLVIVSS
VL: DIQLTQSPSFLSASVGDRVTITCRASQGISCSLAWYQQKPGKAPKLLIYAASTLQSGVPSRFSGSGSGTEFTLTISSLQPEDFATYYCQQFNSYPFTFGPGTKVDIK

- EC50 [2]: 0.11 nM
- Kd [5]: 0.00382 nM
- Kd [3]: 1.5 nM
- binding result [6]: no binding
- OD450 [7]: 0.063 OD450 nm
- OD450 [8]: 0.054 OD450 nm
B10: VY006 (antibody, V domains shown)
VH: EVQLVESGGGLVQPGGSLRLSCAASGFTFSSYTMNWVRQAPGKGLEWVSYISSSSSTIYYADSVKGRFTISRDNAKNSLYLQMNSLRDEDTAVYYCASLGRGDCWGQGTLVTVSS
VL: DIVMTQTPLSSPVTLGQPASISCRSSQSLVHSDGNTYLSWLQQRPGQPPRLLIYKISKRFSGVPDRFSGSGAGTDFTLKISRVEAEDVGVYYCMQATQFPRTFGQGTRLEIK

- EC50 [2]: 0.07 nM
- Kd [3]: 3.7 nM
- OD450 [9]: 0.069 OD450 nm
- OD450 [10]: 0.082 OD450 nm
- OD450 [11]: 0.067 OD450 nm
- OD450 [12]: 2.85 OD450 nm
- OD450 [13]: 0.169 OD450 nm
B12: VY004 (antibody, V domains shown)
VH: EVQLVESGGGLVQAGGSLRLSCAASGFTFSDYSMNWVRQAPGKGLEWVSYIRSSSSIIYYADSVKGRFTISRDNAKNSLHLQMNSLRDEDTAVYYCARRGHFDYWGQGTLVTVSS
VL: EIVLTQSPATLSLSPGERATLSCRASQSVSDYLAWYQQKPGQAPRLFIYDVSKRATGIPARFSGSGSGTDFTLTISSLEPEDFAVYYCQQRSNWPLTFGGGTKVEIK

- binding result [5]: no binding
- Kd [3]: 2.6 nM
- binding result [6]: no binding
- binding result [14]: no binding
B14: VY020 (antibody, V domains shown)
VH: EVQLVESGGGLVQPGGSLRLSCAASGFTFSSYSMNWVRQAPGKGLEWISYISSSNSTIKYADSVKGRFTISRDNAKNSLYLQMNSLRDEDTAVYYCARRSLGDYWGQGTLVIVSS
VL: EIVLTQSPATLSLSPGERATLSCRASQSVSSYLAWYLQKPGQAPRLLIYDVSNRATGIPARFSGSGSGTDFTLTISRLEPEDFAVYYCQQRRNWPYTFGQGTKLEIK
